Laboratory results: US20220220215A1 (CRESCENDO BIOLOGICS, published 2022)
Positions count from the first letter of the chain named. Names and notes keep the numbering of the source. One block for each binder: values may come before it.

Tests used:
[1] = target: T1, human PD-1 expressed on CHO cells (human, UniProt Q15116 21-288); experiment: flow cytometry on CHO huPD1 cells
T1 construct: also called CHO huPD1; CHO human PD1 cells

[2] = target: T1, human PD-1 expressed on CHO cells; experiment: FMAT/Mirrorball on CHO huPD1 cells
Outline: (§1)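 His-tagged VH molecules bound to CHO cells expressing human PD-1 or human CD137, with CHO parent cells as control, in PBS pH 7.4, 0.1% BSA, 0.05% sodium azide. Read by FMAT on Mirrorball (ex 488/640 nm); binding taken as FL2 median fluorescence intensity of FL5-gated events.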

[3] = target: T2, human CD137 expressed on CHO cells (human, UniProt Q07011 18-255); experiment: flow cytometry on CHO huCD137 cells
T2 construct: also called CHO huCD137; CHO human CD137 cells

[4] = target: T2, human CD137 expressed on CHO cells; experiment: FMAT/Mirrorball on CHO huCD137 cells
Outline: as §1

[5] = target: T3, recombinant Fc-tagged ectodomain of human PD1 (Acro Biosystems PD1-H5257) (human, UniProt Q15116 25-170); experiment: SPR, Biacore 8K, single-cycle kinetics; Fc-tagged ectodomain captured on Protein G chip; 1:1 model (construct with two PD-1 arms)
T3 construct: Bought protein; not shown: Fc tag
Description: (§2) Binding of Humabody® VH constructs was measured using a single-cycle kinetics method using the BIAcore 8K instrument with 90 second sample injections with a sample concentration range of low nanomolar to high nanomolar. […] The Protein G sensor surface was regenerated with a 20 second injection of 10 mM Glycine buffer, pH 1.5 (GE Healthcare BR100354). Data were analysed using a 1:1 binding model in Biacore Insight Evaluation software, including Humabody® VH constructs with two PD-1 arms.

[6] = target: T4, human CD137 expressed on cells (Jurkat human CD137 NF-kB luciferase reporter cells; human CD8+ T cells) (human, UniProt Q07011 24-255); experiment: cell-based or functional assay
[7] = target: T5, recombinant Fc-tagged ectodomain of human CD137 (Acro Biosystems 41B-H5258) (human, UniProt Q07011 24-186); experiment: SPR, Biacore 8K, single-cycle kinetics; Fc-tagged ectodomain captured on Protein G chip; 1:1 model
T5 construct: Bought protein; not shown: Fc tag
Description: as §2

[8] = target: T4, human CD137 expressed on cells (Jurkat …); experiment: cell-based or functional assay; remark: listed apart in the source
[9] = target: T6, recombinant Fc-tagged ectodomain of cynomolgus PD1 (Acro Biosystems PD1-C5254) (cynomolgus macaque, UniProt B0LAJ3 25-170); experiment: SPR, Biacore 8K, single-cycle kinetics; Fc-tagged ectodomain captured on Protein G chip; 1:1 model
T6 construct: Bought protein; also called Cyno PD1; cynomolgus macaque PD1; not shown: Fc tag and any linker to it
Description: as §2

[10] = target: T7, recombinant Fc-tagged ectodomain of cynomolgus CD137 (R&D S9324-4b) (cynomolgus macaque, UniProt A9YYE7 24-186); experiment: as above
T7 construct: Bought protein; also called Cyno CD137; cynomolgus macaque CD137; not shown: Fc tag and any linker to it
Description: as §2

[11] = target: T3, recombinant Fc-tagged ectodomain of …; experiment: as above
Description: as §2

[12] = target: T4, human CD137 expressed on cells (Jurkat …); experiment: cell-based or functional assay; remark: listed apart in the source

B1: TPP-1028: CD137A -6GS-HSA3-6GS-PD138G7(G109D)-His (bispecific antibody)
chain: EVQLVESGGGLVQPGGSLRLSCAASGFTLSNYWMNWVRQAPGKGLEWVANINQDGSERYYVDSVKGRFTISRDNAKNSLYLQMNSLRAEDTAVYYCARGGEGYGVDHYGLDVSGQGTTVTVSSGGGGSGGGGSGGGGSGGGGSGGGGSGGGGSEVQLLESGGGLVKPGGSLRLSCAASGFTVSSYTMNWVRQAPGKGLEWVSSISSSGRYIYYADSVKGRFTISRDNAKNSLYLQMNSLRAEDTAVYYCARDPRMVGNPHEFDIWGQGTMVTVSSGGGGSGGGGSGGGGSGGGGSGGGGSGGGGSEVQLVESGGGVVRPGGSLRLSCAASGFTFDDYAMSWVRQAPGKGLEWVSGITWNGGSTGYADSVKDRFTISRDNAKNSLYLQMNSLRAEDTALYYCVRDKYSYAWSYDDFDIWGQGTMVTVSSAAAHHHHHH
notes: Single-chain VH fusion (CD137 VH, HSA VH, PD-1 VH), His tag
EC50 [1]: 22.7 nM
EC50 [2]: 0.583 nM
EC50 [3]: 1.99 nM
EC50 [4]: 0.151 nM

B4: TPP-799 PSMA-6GS-CD137-6GS-HSA (bispecific antibody)
chain: EVQLVESGGGVVQPGRSLRLSCAASGFSFSGYGMHWVRQAPGKGLEWVAYISYDGSNKYYADSVKGRFTISRDNSKNTLYLQMNSLRAEDTAVYYCAKDPAWGLRLGESSSYDFDIWGQGTMVTVSSGGGGSGGGGSGGGGSGGGGSGGGGSGGGGSEVQLVESGGGVVQPGGSLRLSCAASGFTFSNYGMHWVRQAPGKGLEWVAVISNDGNTKTYADSVKGRFTISRDNSKNTLYLQMNSLRAEDTAVYYCAQDETTTVTASYYFDYWGQGTLVTVSSGGGGSGGGGSGGGGSGGGGSGGGGSGGGGSEVQLVESGGGLVQPGRSLRLSCAASGFTFHHYAMHWVRQAPGKGLEWVSGISWNGNKITYADSVKGRFTISRDNAKNSLYLQMNSLRAEDTALYYCVRDSSLFIVGAPTFEHWGRGTLVTVSS
Jurkat-CD137/CHO-PSMA Reporter Assay EC50 [12]: 5.6 nM

B6: TPP-806 PSMA-6GS-CD137-6GS-HSA (bispecific antibody)
chain: B4 chain with V168L, A245T
Jurkat-CD137/CHO-PSMA Reporter Assay EC50 [12]: 9.3 nM

B7: TPP-1439 PD138G7(G109D)-6GS-PD138G7(G109D)-6GS-CD137A-7-6GS-HSA2 (bispecific antibody)
chain: EVQLVESGGGVVRPGGSLRLSCAASGFTFDDYAMSWVRQAPGKGLEWVSGITWNGGSTGYADSVKDRFTISRDNAKNSLYLQMNSLRAEDTALYYCVRDKYSYAWSYDDFDIWGQGTMVTVSSGGGGSGGGGSGGGGSGGGGSGGGGSGGGGSEVQLVESGGGVVRPGGSLRLSCAASGFTFDDYAMSWVRQAPGKGLEWVSGITWNGGSTGYADSVKDRFTISRDNAKNSLYLQMNSLRAEDTALYYCVRDKYSYAWSYDDFDIWGQGTMVTVSSGGGGSGGGGSGGGGSGGGGSGGGGSGGGGSEVQLVESGGGLVQPGGSLRLSCAASGFTLSNYWMNWVRQAPGKGLEWVANINQDGSERYYVDSVKGRFTISRDNAKNSLYLQMNSLRAEDTAVYYCARGGEGYGVDHYGLDVSGQGTTVTVSSGGGGSGGGGSGGGGSGGGGSGGGGSGGGGSEVQLVESGGGLVKPGGSLRLSCAASGFTFSNYNMNWVRQAPGKGLEWVSSISSAGTHIYYADSVKGRFTISRDNAKNSLYLQMNSLRAEDTAVYYCARDPHSTGWYKDFDYWGQGTLVTVSS
notes: Single-chain fusion of four VH single domains, two PD-1 arms
Kd [5]: 0.0683 nM
koff [5]: 5.12e-05 s⁻¹
kon [5]: 750000 M⁻¹ s⁻¹
Jurkat-CD137/CHO-PD-1 Reporter Assay EC50 [6]: 0.0145 nM
Kd [7]: 0.506 nM
koff [7]: 0.000107 s⁻¹
kon [7]: 800000 M⁻¹ s⁻¹

B8: TPP-1027: CD137A -6GS-HSA2-6GS-PD138G7(G109D)-His (bispecific antibody)
chain: EVQLVESGGGLVQPGGSLRLSCAASGFTLSNYWMNWVRQAPGKGLEWVANINQDGSERYYVDSVKGRFTISRDNAKNSLYLQMNSLRAEDTAVYYCARGGEGYGVDHYGLDVSGQGTTVTVSSGGGGSGGGGSGGGGSGGGGSGGGGSGGGGSEVQLVESGGGLVKPGGSLRLSCAASGFTFSNYNMNWVRQAPGKGLEWVSSISSAGTHIYYADSVKGRFTISRDNAKNSLYLQMNSLRAEDTAVYYCARDPHSTGWYKDFDYWGQGTLVTVSSGGGGSGGGGSGGGGSGGGGSGGGGSGGGGSEVQLVESGGGVVRPGGSLRLSCAASGFTFDDYAMSWVRQAPGKGLEWVSGITWNGGSTGYADSVKDRFTISRDNAKNSLYLQMNSLRAEDTALYYCVRDKYSYAWSYDDFDIWGQGTMVTVSSAAAHHHHHH
notes: as for B1
EC50 [1]: 5.01 nM
EC50 [2]: 0.173 nM
EC50 [3]: 1.47 nM
EC50 [4]: 0.0672 nM

B9: TPP-801 PSMA-6GS-CD137-6GS-HSA (bispecific antibody)
chain: EVQLVESGGGVVQPGRSLRLSCAASGFSFSGYGMHWVRQAPGKGLEWVAYISYDGSNKYYADSVKGRFTISRDNSKNTLYLQMNSLRAEDTAVYYCAKDPAWGLRLGESSSYDFDIWGQGTMVTVSSGGGGSGGGGSGGGGSGGGGSGGGGSGGGGSEVQLVESGGGVVQPGGSLRLSCAASGFTFSNYGMHWVRQAPGKGLEWVAVISNDGNTKTYADSVKGRFTISRDNSKNTLYLQMNSLRAEDTAVYYCAQDETTTVTASYYFDYWGQGTLVTVSSGGGGSGGGGSGGGGSGGGGSGGGGSGGGGSEVQLVESGGGLVKPGGSLRLSCAASGFTFSNYNMNWVRQAPGKGLEWVSSISSAGTHIYYADSVKGRFTISRDNAKNSLYLQMNSLRAEDTAVYYCARDPHSTGWYKDFDYWGQGTLVTVSS
Jurkat-CD137/CHO-PSMA Reporter Assay EC50 [12]: 1.3 nM

Other lines, results leading:

Kd [5]: 0.0951 nM
koff [5]: 5.02e-05 s⁻¹
kon [5]: 527000 M⁻¹ s⁻¹
Jurkat-CD137/CHO-PD-1 Reporter Assay EC50 [6]: 0.00466 nM
Kd [7]: 0.62 nM
koff [7]: 0.00011 s⁻¹
kon [7]: 500000 M⁻¹ s⁻¹
B2: TPP-1438 CD137A-6GS-HSA2-6GS-PD138G7(G109D)-6GS-PD138G7(G109D) (bispecific antibody)
chain: EVQLVESGGGLVQPGGSLRLSCAASGFTLSNYWMNWVRQAPGKGLEWVANINQDGSERYYVDSVKGRFTISRDNAKNSLYLQMNSLRAEDTAVYYCARGGEGYGVDHYGLDVSGQGTTVTVSSGGGGSGGGGSGGGGSGGGGSGGGGSGGGGSEVQLVESGGGLVKPGGSLRLSCAASGFTFSNYNMNWVRQAPGKGLEWVSSISSAGTHIYYADSVKGRFTISRDNAKNSLYLQMNSLRAEDTAVYYCARDPHSTGWYKDFDYWGQGTLVTVSSGGGGSGGGGSGGGGSGGGGSGGGGSGGGGSEVQLVESGGGVVRPGGSLRLSCAASGFTFDDYAMSWVRQAPGKGLEWVSGITWNGGSTGYADSVKDRFTISRDNAKNSLYLQMNSLRAEDTALYYCVRDKYSYAWSYDDFDIWGQGTMVTVSSGGGGSGGGGSGGGGSGGGGSGGGGSGGGGSEVQLVESGGGVVRPGGSLRLSCAASGFTFDDYAMSWVRQAPGKGLEWVSGITWNGGSTGYADSVKDRFTISRDNAKNSLYLQMNSLRAEDTALYYCVRDKYSYAWSYDDFDIWGQGTMVTVSS
notes: as for B7

Jurkat-CD137/CHO-PD-1 Reporter Assay EC50 [6]: 0.0729 nM
CD8+ T-cell activation assay - IL-2 release, EC50 [8]: 0.176 nM
Kd [9]: 20.5 nM
koff [9]: 0.00464 s⁻¹
kon [9]: 227000 M⁻¹ s⁻¹
Kd [10]: 0.842 nM
koff [10]: 0.000267 s⁻¹
kon [10]: 317000 M⁻¹ s⁻¹
Kd [11]: 8.38 nM
koff [11]: 0.00202 s⁻¹
kon [11]: 241000 M⁻¹ s⁻¹
Kd [7]: 0.541 nM
koff [7]: 0.000187 s⁻¹
kon [7]: 345000 M⁻¹ s⁻¹
B3: TPP-1246 CD137A-6GS-HSA2-6GS-PD138G7(G109D) (bispecific antibody)
chain: EVQLVESGGGLVQPGGSLRLSCAASGFTLSNYWMNWVRQAPGKGLEWVANINQDGSERYYVDSVKGRFTISRDNAKNSLYLQMNSLRAEDTAVYYCARGGEGYGVDHYGLDVSGQGTTVTVSSGGGGSGGGGSGGGGSGGGGSGGGGSGGGGSEVQLVESGGGLVKPGGSLRLSCAASGFTFSNYNMNWVRQAPGKGLEWVSSISSAGTHIYYADSVKGRFTISRDNAKNSLYLQMNSLRAEDTAVYYCARDPHSTGWYKDFDYWGQGTLVTVSSGGGGSGGGGSGGGGSGGGGSGGGGSGGGGSEVQLVESGGGVVRPGGSLRLSCAASGFTFDDYAMSWVRQAPGKGLEWVSGITWNGGSTGYADSVKDRFTISRDNAKNSLYLQMNSLRAEDTALYYCVRDKYSYAWSYDDFDIWGQGTMVTVSS

Jurkat-CD137/CHO-PSMA Reporter Assay EC50 [12]: 16 nM
B5: TPP-805 PSMA-6GS-CD137-6-6GS-HSA (bispecific antibody)
chain: B4 chain with V168L, T235M, A245T
